# Reference: patent publication US20050175581
# Substitutions are numbered along the chain they refer to.
# T1: substrate B
# T1 chain: KKWLGRVPGGPV
# T2: substrate A
# T2 chain: LLWLGRVVGGPV
# B1: Variant 2 (protein)
# chain: IVGGYNCEENSVPYQVSLNSGYHFCGGSLINEQWVVSAGHCYNGRDLEKSRIQVRLGEHNIEVLEGNEQFINAAKIIRHPQYDRKTLNNDIMLIKLSSRAVINARVSTISLPTAPPATGTKCLISGWGNVRGTWTASSGADYPDELQCLDAPVLSQAKCEASYPGKITSNMFCVGFLEGGKDSCQGDSGGPVVCNGQLQGVVSWGDGCAQKNKPGVYTKVYNYVKWIKNTIAANS
# B2: Variant 1 (protein)
# chain: IVGGYNCEENSVPYQVSLNSGYHFCGGSLINEQWVVSAGHCYDAVGRDKSRIQVRLGEHNIEVLEGNEQFINAAKIIRHPQYDRKTLNNDIMLIKLSSRAVINARVSTISLPTAPPATGTKCLISGWGNTITNSTASSGADYPDELQCLDAPVLSQAKCEASYPGKITSNMFCVGFLEGGKDSCQGDSGGPVVCNGQLQGVVSWGDGCAQKNKPGVYTKVYNYVKWIKNTIAANS
# B3: Variant 3 (protein)
# chain: B2 chain with D43A, V45T, G46N, R47G, T130R, I131K, T132D, N133F, S134W
# How the values were obtained:
# substrate B = target: T1, substrate B
# substrate A = target: T2, substrate A
Protein,"rate constants of the proteolytic digestion (proportional to kcat/KM), relative to human trypsin I (substrate B)","rate constants of the proteolytic digestion (proportional to kcat/KM), relative to human trypsin I (substrate A)"
B1,"the specific activity of variants 1 and 2 is shifted (SEQ ID NOs: 2 and 3, respectively) towards substrate B",
B2,"the specific activity of variants 1 and 2 is shifted (SEQ ID NOs: 2 and 3, respectively) towards substrate B",
B3,serves as a negative control with similar activities as the human trypsin I,serves as a negative control with similar activities as the human trypsin I
